Assay results from PMC9981704, “PARP1 allows proper telomere replication through TRF1 poly (ADP-ribosyl)ation and helicase recruitment”.

Legend:
[1] = target: TRF1 (unmodified, His-tagged full length) (human, UniProt P54274 1-439); assay: EMSA; unmodified TRF1, 1 ug protein, 0.5 ng DNA; 20 mM Hepes pH 7.9, 100 mM NaCl, 50 mM KCl, 1 mM MgCl2, 0.1 mM EDTA, 1 mM DTT, 5% glycerol, 0.5 mg/ml BSA, 0.1% NP-40; 4 °C, 90 min; native 4.5% PAGE; details: protein: recombinant; tags: His (pTrc-HisB); chain copies: 2; label: 32P 5' end label (T4 PNK); blunt
[2] = target: PARP1 (high specific activity) (human, UniProt P09874 1-1014); assay: EMSA; PARP1 alone, control from PARylation reaction; did not affect DNA migration; 20 mM Hepes pH 7.9, 100 mM NaCl, 50 mM KCl, 1 mM MgCl2, 0.1 mM EDTA, 1 mM DTT, 5% glycerol, 0.5 mg/ml BSA, 0.1% NP-40; 4 °C, 90 min; native 4.5% PAGE; details: protein: commercial; label: 32P 5' end label (T4 PNK); blunt
Chain of PARP1 (high specific activity) (P09874 whole entry): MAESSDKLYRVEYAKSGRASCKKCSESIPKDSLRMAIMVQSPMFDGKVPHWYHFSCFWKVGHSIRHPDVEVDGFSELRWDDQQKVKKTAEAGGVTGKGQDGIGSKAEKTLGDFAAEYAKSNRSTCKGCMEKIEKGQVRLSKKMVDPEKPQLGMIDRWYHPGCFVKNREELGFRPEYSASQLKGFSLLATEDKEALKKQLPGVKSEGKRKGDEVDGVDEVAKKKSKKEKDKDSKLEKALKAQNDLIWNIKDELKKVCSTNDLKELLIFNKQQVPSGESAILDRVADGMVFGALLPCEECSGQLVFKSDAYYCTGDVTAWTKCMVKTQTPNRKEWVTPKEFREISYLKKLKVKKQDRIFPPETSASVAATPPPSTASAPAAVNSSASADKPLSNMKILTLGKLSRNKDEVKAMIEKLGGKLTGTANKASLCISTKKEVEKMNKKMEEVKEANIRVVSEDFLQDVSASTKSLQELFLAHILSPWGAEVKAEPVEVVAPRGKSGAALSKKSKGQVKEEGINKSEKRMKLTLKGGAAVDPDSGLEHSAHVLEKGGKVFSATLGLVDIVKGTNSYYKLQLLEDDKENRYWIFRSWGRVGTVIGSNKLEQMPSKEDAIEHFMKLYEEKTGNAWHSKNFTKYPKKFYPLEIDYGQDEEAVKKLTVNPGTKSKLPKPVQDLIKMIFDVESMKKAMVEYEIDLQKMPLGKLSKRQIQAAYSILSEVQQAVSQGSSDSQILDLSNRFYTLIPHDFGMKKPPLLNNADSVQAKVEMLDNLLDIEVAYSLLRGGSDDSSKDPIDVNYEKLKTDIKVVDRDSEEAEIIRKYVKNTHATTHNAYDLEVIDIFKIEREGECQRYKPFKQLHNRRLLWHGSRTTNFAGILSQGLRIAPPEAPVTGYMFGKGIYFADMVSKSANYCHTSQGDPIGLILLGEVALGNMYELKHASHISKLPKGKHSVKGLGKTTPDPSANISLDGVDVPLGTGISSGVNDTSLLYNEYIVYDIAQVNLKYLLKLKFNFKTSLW

Chain of TRF1 (unmodified, His-tagged full length) (P54274 whole entry): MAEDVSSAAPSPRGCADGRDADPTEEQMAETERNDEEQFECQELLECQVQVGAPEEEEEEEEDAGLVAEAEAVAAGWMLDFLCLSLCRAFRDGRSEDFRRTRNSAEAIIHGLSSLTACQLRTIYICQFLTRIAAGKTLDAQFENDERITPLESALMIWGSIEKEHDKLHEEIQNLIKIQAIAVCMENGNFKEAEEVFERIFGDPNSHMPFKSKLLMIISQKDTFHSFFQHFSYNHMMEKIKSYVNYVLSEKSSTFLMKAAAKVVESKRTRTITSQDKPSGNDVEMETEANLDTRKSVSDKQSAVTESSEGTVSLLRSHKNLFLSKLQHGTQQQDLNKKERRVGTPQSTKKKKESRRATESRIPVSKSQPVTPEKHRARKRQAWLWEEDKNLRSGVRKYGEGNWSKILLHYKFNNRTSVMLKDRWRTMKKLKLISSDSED

B1: telomeric duplex DNA (dsDNA)
DNA 1: GGGTTAGGGTTAGGGTTAGGGTTAGGGTTAGGGTTAGGGTTAGGGCCCCTC
DNA 2: GAGGGGCCCTAACCCTAACCCTAACCCTAACCCTAACCCTAACCCTAACCC
- binding result [1]: binds
- binding result [2]: no binding
